Test results taken from patent US20190177716A1.
pKd: −log10 of the molar value.

How the values were obtained:
[1] = biological target: CD3ε of the TCR-CD3 complex expressed on Jurkat cells (T-cell Surface Glycoprotein CD3 Epsilon) (human) (UniProt P07766); assay: flow cytometry on Jurkat.E6 cells at 25 C, secondary goat anti-mouse IgG staining, one-site specific binding fit
[2] = biological target: CD28 expressed on Jurkat.E6 cells (human) (UniProt P10747); assay: as above

| pKd [1] | pKd [2] | Substance |
| --- | --- | --- |
| 8.85 |  | anti-CD3 monoclonal antibody clone UCHT1 (mouse anti-human, isotype IgG1, BioXCell Catalog# BE0231) |
| 8.82 |  | anti-CD3 monoclonal antibody clone OKT3 (mouse anti-human, isotype IgG2a, BioXCell Catalog# BE0001-2) |
|  | 8.80 | anti-CD28 monoclonal antibody (mouse anti-human, isotype IgG2a, Clone 9.3, BioXCell Catalog# BE0248) |
